# B1: Cadherin-related family member 5 (Homo sapiens), Q9HBB8 (parent)
# chain: MGSWALLWPPLLFTGLLVRPPGTMAQAQYCSVNKDIFEVEENTNVTEPLVDIHVPEGQEVTLGALSTPFAFRIQGNQLFLNVTPDYEEKSLLEAQLLCQSGGTLVTQLRVFVSVLDVNDNAPEFPFKTKEIRVEEDTKVNSTVIPETQLQAEDRDKDDILFYTLQEMTAGASDYFSLVSVNRPALRLDRPLDFYERPNMTFWLLVRDTPGENVEPSHTATATLVLNVVPADLRPPWFLPCTFSDGYVCIQAQYHGAVPTGHILPSPLVLRPGPIYAEDGDRGINQPIIYSIFRGNVNGTFIIHPDSGNLTVARSVPSPMTFLLLVKGQQADLARYSVTQVTVEAVAAAGSPPRFPQRLYRGTVARGAGAGVVVKDAAAPSQPLRIQAQDPEFSDLNSAITYRITNHSHFRMEGEVVLTTTTLAQAGAFYAEVEAHNTVTSGTATTVIEIQVSEQEPPSTDVPPSPEAGGTTGPWTSTTSEVPRPPEPSQGPSTTSSGGGTGPHPPSGTTLRPPTSSTPGGPPGAENSTSHQPATPGGDTAQTPKPGTSQPMPPGVGTSTSHQPATPSGGTAQTPEPGTSQPMPPSMGTSTSHQPATPGGGTAQTPEAGTSQPMPPGMGTSTSHQPTTPGGGTAQTPEPGTSQPMPLSKSTPSSGGGPSEDKRFSVVDMAALGGVLGALLLLALLGLAVLVHKHYGPRLKCCCGKAPEPQPQGFDNQAFLPDHKANWAPVPSPTHDPKPAEAPMPAEPAPPGPASPGGAPEPPAAARAGGSPTAVRSILTKERRPEGGYKAVWFGEDIGTEADVVVLNAPTLDVDGASDSGSGDEGEGAGRGGGPYDAPGGDDSYI
# partner: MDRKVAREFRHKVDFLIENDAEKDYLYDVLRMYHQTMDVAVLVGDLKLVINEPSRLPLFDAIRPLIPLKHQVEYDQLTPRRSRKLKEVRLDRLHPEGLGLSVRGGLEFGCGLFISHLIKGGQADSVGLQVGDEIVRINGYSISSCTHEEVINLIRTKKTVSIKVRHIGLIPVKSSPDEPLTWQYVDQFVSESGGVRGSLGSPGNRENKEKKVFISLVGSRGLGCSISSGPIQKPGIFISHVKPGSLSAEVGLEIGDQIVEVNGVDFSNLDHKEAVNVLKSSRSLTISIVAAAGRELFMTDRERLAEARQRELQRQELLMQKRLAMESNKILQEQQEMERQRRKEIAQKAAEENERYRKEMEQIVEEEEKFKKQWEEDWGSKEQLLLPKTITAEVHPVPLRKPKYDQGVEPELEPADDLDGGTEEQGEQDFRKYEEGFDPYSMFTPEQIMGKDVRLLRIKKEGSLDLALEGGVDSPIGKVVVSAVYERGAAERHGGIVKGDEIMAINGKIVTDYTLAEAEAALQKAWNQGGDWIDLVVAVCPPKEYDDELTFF
# B2: Cadherin-related family member 2 (Homo sapiens), Q9BYE9 (parent)
# chain: MAQLWLSCFLLPALVVSVAANVAPKFLANMTSVILPEDLPVGAQAFWLVAEDQDNDPLTYGMSGPNAYFFAVTPKTGEVKLASALDYETLYTFKVTISVSDPYIQVQREMLVIVEDRNDNAPVFQNTAFSTSINETLPVGSVVFSVLAVDKDMGSAGMVVYSIEKVIPSTGDSEHLFRILANGSIVLNGSLSYNNKSAFYQLELKACDLGGMYHNTFTIQCSLPVFLSISVVDQPDLDPQFVREFYSASVAEDAAKGTSVLTVEAVDGDKGINDPVIYSISYSTRPGWFDIGADGVIRVNGSLDREQLLEADEEVQLQVTATETHLNIYGQEAKVSIWVTVRVMDVNDHKPEFYNCSLPACTFTPEEAQVNFTGYVDEHASPRIPIDDLTMVVYDPDKGSNGTFLLSLGGPDAEAFSVSPERAVGSASVQVLVRVSALVDYERQTAMAVQVVATDSVSQNFSVAMVTIHLRDINDHRPTFPQSLYVLTVPEHSATGSVVTDSIHATDPDTGAWGQITYSLLPGNGADLFQVDPVSGTVTVRNGELLDRESQAVYYLTLQATDGGNLSSSTTLQIHLLDINDNAPVVSGSYNIFVQEEEGNVSVTIQAHDNDEPGTNNSRLLFNLLPGPYSHNFSLDPDTGLLRNLGPLDREAIDPALEGRIVLTVLVSDCGEPVLGTKVNVTITVEDINDNLPIFNQSSYNFTVKEEDPGVLVGVVKAWDADQTEANNRISFSLSGSGANYFMIRGLVLGAGWAEGYLRLPPDVSLDYETQPVFNLTVSAENPDPQGGETIVDVCVNVKDVNDNPPTLDVASLRGIRVAENGSQHGQVAVVVASDVDTSAQLEIQLVNILCTKAGVDVGSLCWGWFSVAANGSVYINQSKAIDYEACDLVTLVVRACDLATDPGFQAYSNNGSLLITIEDVNDNAPYFLPENKTFVIIPELVLPNREVASVRARDDDSGNNGVILFSILRVDFISKDGATIPFQGVFSIFTSSEADVFAGSIQPVTSLDSTLQGTYQVTVQARDRPSLGPFLEATTTLNLFTVDQSYRSRLQFSTPKEEVGANRQAINAALTQATRTTVYIVDIQDIDSAARARPHSYLDAYFVFPNGSALTLDELSVMIRNDQDSLTQLLQLGLVVLGSQESQESDLSKQLISVIIGLGVALLLVLVIMTMAFVCVRKSYNRKLQAMKAAKEARKTAAGVMPSAPAIPGTNMYNTERANPMLNLPNKDLGLEYLSPSNDLDSVSVNSLDDNSVDVDKNSQEIKEHRPPHTPPEPDPEPLSVVLLGRQAGASGQLEGPSYTNAGLDTTDL
# partner: B1 partner
# B3: Cadherin-related family member 5 (Homo sapiens), Q9HBB8-2 (parent)
# chain: MGSWALLWPPLLFTGLLVRPPGTMAQAQYCSVNKDIFEVEENTNVTEPLVDIHVPEGQEVTLGALSTPFAFRIQGNQLFLNVTPDYEEKSLLEAQLLCQSGGTLVTQLRVFVSVLDVNDNAPEFPFKTKEIRVEEDTKVNSTVIPETQLQAEDRDKDDILFYTLQEMTAGASDYFSLVSVNRPALRLDRPLDFYERPNMTFWLLVRDTPGENVEPSHTATATLVLNVVPADLRPPWFLPCTFSDGYVCIQAQYHGAVPTGHILPSPLVLRPGPIYAEDGDRGINQPIIYSIFRGNVNGTFIIHPDSGNLTVARSVPSPMTFLLLVKGQQADLARYSVTQVTVEAVAAAGSPPRFPQRLYRGTVARGAGAGVVVKDAAAPSQPLRIQAQDPEFSDLNSAITYRITNHSHFRMEGEVVLTTTTLAQAGAFYAEVEAHNTVTSGTATTVIEIQVSEQEPPSTGGGPSEDKRFSVVDMAALGGVLGALLLLALLGLAVLVHKHYGPRLKCCCGKAPEPQPQGFDNQAFLPDHKANWAPVPSPTHDPKPAEAPMPAEPAPPGPASPGGAPEPPAAARAGGSPTAVRSILTKERRPEGGYKAVWFGEDIGTEADVVVLNAPTLDVDGASDSGSGDEGEGAGRGGGPYDAPGGDDSYI
# partner: B2 chain
# Variants of: B1
# Details: with USH1C
row,Variant,effect of a mutation on the interaction
1,I845R,disrupting interaction strength

# Variants of: B2
# Details: with USH1C
row,Variant,effect of a mutation on the interaction
1,L1310R,disrupting interaction strength

# Variants of: B3
# Details: with cdhr2_human CDHR2, Q9BYE9
row,Variant,effect of a mutation on the interaction
1,R109G,disrupting interaction strength
